# Assay results published in publication PMC3078909.
# Columns and labels:
# Cys15 [1] = molecular target: Cys15 (UniProt position 14, AANWKCNGSQQ); assay: chemical modification (MMTS inactivation followed by enzyme activity); conditions: not stated for the pKa determination (MMTS inactivation and activity assays were at 25°C); 100 mM TEA, 10 mM EDTA adjusted to the desired pH; free enzyme, 5 µg/mL, 80 µM MMTS
# Cys15 [2] = molecular target: T1, Cys15 (UniProt position 15, AANWKCNGSES); assay: as above; conditions: not stated for the pKa determination (MMTS inactivation and activity assays were at 25°C), 100 mM TEA, 10 mM EDTA adjusted to the desired pH, free enzyme, 5 µg/mL
# Cys15 [3] = molecular target: T1, Cys15; assay: chemical modification (as in ref 24; this article says its new determinations were made 'under the same conditions'); conditions: free enzyme; cited from earlier work
# Cys14 [4] = molecular target: T2, Cys14 (UniProt position 14, AANWKCNGSQQ); assay: as above; conditions: free enzyme; cited from earlier work
# Cys14 [5] = molecular target: T2, Cys14; assay: chemical modification (MMTS inactivation followed by enzyme activity); conditions: not stated for the pKa determination (MMTS inactivation and activity assays were at 25°C); 100 mM TEA, 10 mM EDTA adjusted to the desired pH; free enzyme, 5 µg/mL, 80 µM MMTS
# Cys14 [6] = assay: as above; conditions: not stated for the pKa determination (MMTS inactivation and activity assays were at 25°C); 100 mM TEA, 10 mM EDTA adjusted to the desired pH; free enzyme, 5 µg/mL, 80 µM MMTS
# [7] = 10 and 80 µM MMTS (mean of both)
substance,measurement,setting,value
"Chimera TcTIM 1 (region 1 of TcTIM, regions 2-8 of TbTIM) (Trypanosoma cruzi / Trypanosoma brucei chimera; region 1 of TbTIM replaced by the TcTIM sequence (13 differing residues plus a one-residue N-terminal length difference; individual substitutions not listed in the text))",pKa,Cys15 [1],9.49±0.08
"Chimera TcTIM 1-4 (regions 1-4 of TcTIM, regions 5-8 of TbTIM) (Trypanosoma cruzi / Trypanosoma brucei chimera; regions 5-8 of TcTIM replaced by the TbTIM sequence (individual substitutions not listed in the text; Figure 1 is image only))",pKa,Cys15 [2]; 10 µM MMTS,9.17±0.12
"Triosephosphate isomerase (TcTIM), wild type (Trypanosoma cruzi)",pKa,Cys15 [3],9.28±0.07
same,pKa,Cys15 [2]; 10 µM MMTS,9.27±0.16
"Chimera TcTIM 1-3 (regions 1-3 of TcTIM, regions 4-8 of TbTIM) (Trypanosoma cruzi / Trypanosoma brucei chimera; regions 4-8 of TcTIM replaced by the TbTIM sequence (individual substitutions not listed in the text))",pKa,Cys15 [2]; [7],9.86±0.05
"Chimera TcTIM 1-3, 5-8 (TcTIM with region 4 of TbTIM) (Trypanosoma cruzi / Trypanosoma brucei chimera; region 4 of TcTIM replaced by the TbTIM sequence (5 substitutions, not listed individually in the text))",pKa,Cys15 [2]; [7],9.59±0.06
"Triosephosphate isomerase (TbTIM), wild type (Trypanosoma brucei)",pKa,Cys14 [4],10.08±0.03
same,pKa,Cys14 [5],10.53±0.06
"Chimera TcTIM 2,3, 5-8 (TcTIM with regions 1 and 4 of TbTIM) (Trypanosoma cruzi / Trypanosoma brucei chimera; regions 1 and 4 of TcTIM replaced by the TbTIM sequence (13 + 5 differing residues, not listed individually in the text))",pKa,Cys14 [6],10.61±0.06
